Measurements taken from the nanobody polyreactivity screen of Harvey et al. (2022).

Assay: yeast display, Sf9 membrane polyspecificity reagent, FACS + sequencing; frameworks hold sequencing errors
Summary of the method: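 Galactose induction of a Saccharomyces cerevisiae BJ5465 synthetic nanobody display library ran 36–48 hours. The cells were then stained for 1 hour at 4 °C with 10% biotinylated, detergent-solubilized Sf9 membrane reagent, pulled down on streptavidin microbeads and FACS-sorted into low and high (top ~1%) gates on expression and reagent-binding fluorescence. Labels for polyreactivity follow the gate of origin.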

Sequence	polyreactivity (PSR sort gate)
QVQLVESGGGLVQAGGSLRLSCAASGLIFASYAMGWYRQAPGKERELVATITVGGSTYYADSVKGRFTISRDNPKNTVYLQMISLKPEDTAVYYCNVGESVPWYEWGALWFSFDYWGQGTQVSVSS	high polyreactivity
QVQLVESGGGLVQAGGSLRLSCAASGLIFATYAMGWSRQAPGKERELVAAISYRGSRTYYADSVKGRFTISRDNAMTTVYLQMNILKPEDTGVYYCAAVYRTYGIGPNNYWGQGTQVTVSS	high polyreactivity
QVQLVESGGGLVQAGGSLRLSCAASGLIFDKYAMGWYRQAPGKERELVAAITRSSGTTYYADSVKGRFTISRDNAKNTVYLQLNSLKPEDTAVYYCAARFIWGYWGVGYYYWGLGTQVTVSS	low polyreactivity
QVQLVESGGGLVQAGGSLRLSCAASGLIFDRYPMGWYRQAPGKERELVAAINRSGGTTYYADSVKGRFTISRDNAKNTVYLQMNSLKPEDTAVYYCAARWQRYRSGTGDYWGQGTQVTVSS	high polyreactivity
QVQLVESGGGLVQAGGSLRLSCAASGLIFDWYAMGWYRPAPGKERELVADISNSGGSTNYADSVKGRFTISRDSAFNTVYLQMNSLKPEDTEVYYCAVDYYYPTLTIGYYYWGQVTQVTVSS	low polyreactivity
QVQLVESGGGLVQAGGSLRLSCAASGLIFEGYAMGWYRQAPGKERELVAAISSAGSTYYADSVKGRFTISRDNAKNTVYLQMNSLKPEDTAVYYCNARRRRLVSYYYWGQGTQVTVSS	high polyreactivity
QVQLVESGGGLVQAGGSLRLSCAASGLIFENNAMGWYRQAPGKERELVAAITKGGGSTYYADSVKGRFTISRDNAMNTVYLQMNSLKPEDTAVYYCAKVHPWHRYWQYWYDYWGQGTQVTVSS	low polyreactivity
QVQLVESGGGLVQAGGSLRLSCAASGLIFFYYAMGWYRQAPGKERELVATINLNGGSTYYADSVKGRFTISRDNAKNSVYLQMNSLKPEDTAGYYCAAAGTKYYARYYYWGQGTQVTVSS	high polyreactivity
QVQLVESGGGLVQAGGSLRLSCAASGLIFGFYTMGWYRQAPGKERELVAVISSSGGSTYYADSVKGRFTISRDNAKNTVYLQMNSLKPEDTAVYYCAARAYPVRYRRRDYWGQGTQVTVSS	high polyreactivity
QVQLVESGGGLVQAGGSLRLSCAASGLIFGGNAMGWYRQAPGKERELVAAISRTGGRTYYADSVKGRFTISRDNAKNTVFLQMNSLKPEDTAVYYCNAATSYYTYTYGYWGQGTQVTVSS	high polyreactivity
QVQLVESGGGLVQAGGSLRLSCAASGLIFGRYAMGWYRQAPGKERELVAAISSSGVRTYYADSVKGRFTISRDNAKNTVYLQMNSLKPEDTAVSYCAAAYWSSREDTVIKSYYWGQGTQVTVSS	high polyreactivity
QVQLVESGGGLVQAGGSLRLSCAASGLIFGRYAMGWYRQAPGKERELVAAISSSGVRTYYADSVKGRFTISRDNAKNTVYLQMNSLKPEDTAVYYCAAAYWSSREDTVIKRYYWGQGTQVTVSS	high polyreactivity
QVQLVESGGGLVQAGGSLRLSCAASGLIFGTYAMGWYRQAPGKERELVATINSSGGSTYYADSVKGRFTISRDNAKNTVYLQMNSLKPEDTAVYYCNTRRYDAYYDYDYWGQGTQVTVSS	low polyreactivity
QVQLVESGGGLVQAGGSLRLSCAASGLIFGVNAMGWYRQAPGKERELVAAISWSGSSTNYADSVKGRFTISRDNAKNTVYLQMNSLKPEDTAVYYCATDQGYRYLKIYVYGDAFDYWGQGTQVTVSS	low polyreactivity
QVQLVESGGGLVQAGGSLRLSCAASGLIFGVNDMGWYRQAPGKERELVAAITSRGGSTYYADSVKGRFTISRDNAKNTVYLQMNSLKPEDTAVYYCAAKYAYYEPYSWRPQRTYNYWGQGTQVTVSS	high polyreactivity
QVQLVESGGGLVQAGGSLRLSCAASGLIFGWNAMGWYRQAPGKERELVAAISSGGSTNYADSVKGRFTISRDNAKNTVYLQMNRLKPEDNAVYYCATRNGYSGTYGYWGQGTQVTVSS	low polyreactivity
QVQLVESGGGLVQAGGSLRLSCAASGLIFHQYAMGWYRQAPGKERELVAAITRSGTRTYYADSVKGRFTISRDNAKNTVYLQMNSLKPEDTAVYYCNKALRTYPLFYYWGQGTQVTVSS	high polyreactivity
QVQLVESGGGLVQAGGSLRLSCAASGLIFIHNTMRWYRQAPGKERELVAAISWSGASTYYADSVKGRFTISRDNAKNTVYLQMNSLKPEDTAVYYCNAGYRYSIYDYWGQGTQVTVSS	low polyreactivity
QVQLVESGGGLVQAGGSLRLSCAASGLIFISYAMGWYRQAPGKERELVAAITRSAGTTYYADSVKGRFTISRDNAKNTVYLQMNSLKPEDTAVYYCNALYPITPEDYWGQGTQVTVSS	low polyreactivity
QVQLVESGGGLVQAGGSLRLSCAASGLIFKRYGMGWYRQAPGKERELVAAISRSGGNTYYADSVKGRFTISRDNAKNTVYLQMNSLKPEDTAVYYCAATATYTYSDVDYWGQGTQVTVSS	high polyreactivity
QVQLVESGGGLVQAGGSLRLSCAASGLIFKSNAMGWYRPAPGKERELVAAITRTGGSTYYADSVKGRFTISRDNAKNTVYLQMNSLKPEDTAVYYCAKVVGRWRSSWELDYWGQGTQVTVSS	high polyreactivity
QVQLVESGGGLVQAGGSLRLSCAASGLIFKTYAIGWYRLAPGNERELVAAISWSGGGNTYYADSVKGRFTISRDNAKNTVYLQMNSLKPEDTAVYYCNAPRFVSYDYWGQGTQVTVSS	high polyreactivity

Sequence	polyreactivity (PSR sort gate)
QVQLVESGGGLVQAGGSLRLSCAASGLIFKVYAMGWYRQAPGKERELVAAITYSGGSTDYADSVKGRFTISRDNAKNTVYLQMNSLKPEDTAVYYCNVEKVGHVNSYGYDYWGQGTQVTVSS	low polyreactivity
QVQLVESGGGLVQAGGSLRLSCAASGLIFKYKAMGWYRQAPGKERELVAAISTSGGSTYYADSVKGRFTISRDNAKNTVYLQMNSLKPEDTAVYYCNAVAGRPFRYYYWGQGTQVTVSS	high polyreactivity
QVQLVESGGGLVQAGGSLRLSCAASGLIFKYNAMGWYRQAPGKERELVADINRSGGSTYYADSVKGRFTISRDNAKNTVYLQMNSLKPEDTAVYYCAAERVSLYWVIFGYWGQGTQVTVSS	low polyreactivity
QVQLVESGGGLVQAGGSLRLSCAASGLIFKYYAMGWYREAPGKERELVATITRGGGSTYYADSVKGRFTISRDNAKNTVYLQMNSLKPEDTAVYYCAADYWYVYPRYNPGDYWGQGTQVTVSS	high polyreactivity
QVQLVESGGGLVQAGGSLRLSCAASGLIFLDYAMGWNRQAPWKERELVAAITGRGGSTYYADSVKGRFTISRDNAKNTVYLQMNSLKPDDTAVYDCAAQYSYPTPYRTYEYDYWGQGTQVTVSS	high polyreactivity
QVQLVESGGGLVQAGGSLRLSCAASGLIFLEYAMGWYRQAPGKERELLAAISTSGGSTYYADSVKGRFTISRDNAKNTVYLQMNSLKPEDTAVYYCAAEPVYNYYFHDGDYWGQGTQVTVSS	low polyreactivity
QVQLVESGGGLVQAGGSLRLSCAASGLIFLPYAMGWYRQAPGKERELVAAIRWSDDSTYYADSVKGRFTILRDNAKNTVYFQMNCLKPEDTAVYYCNAYVYRPSYIFNYYYEYDYWGQGTQVTVSS	high polyreactivity
QVQLVESGGGLVQAGGSLRLSCAASGLIFLYYAMGWYRQAPGKERELVAAISRRGGSTYYADSVKGRFTISRDNAKNTVYLQMNSLKPEDTAVYYCAAKYESYPGGIWTYYYWGQGTQVTVSS	high polyreactivity
QVQLVESGGGLVQAGGSLRLSCAASGLIFNLYAIGWNRQAPGKEREFVATITGIGGSTYYADSVKGRFTISRDNAMNTVYFQMNSLKPEDTAVYYCAADAWFLPYNYWGQGTQVTVSS	low polyreactivity
QVQLVESGGGLVQAGGSLRLSCAASGLIFNLYAMGWYRQAPGKEREFVATITGIGGSTYYADSVKGRFTISRDNANNTVYLQMTSLKPEDTAVYYCAADAWFLPYNYWGQGTQVTVSS	low polyreactivity
QVQLVESGGGLVQAGGSLRLSCAASGLIFPFYTMGWYRQAPGKERELVAAISYSGGSTYYADSVKGRFAISRDNAKNTVYLQMNSLKPEDTAVYYCAKSYRTTYHFWSGYDYWGQGTQVTVSS	low polyreactivity
QVQLVESGGGLVQAGGSLRLSCAASGLIFPKNAMGWYRQAPGKERELVAAISSSDSSTYADSVKGRFTISRDNAKNTVYLQMNSLKPEDTAVYYCAAASYNWLDWVTREYWGQGTQVTVSS	low polyreactivity
QVQLVESGGGLVQAGGSLRLSCAASGLIFPRNAMGWYRQAPGKERELVAVISRSGTSTYYADSVKGRFTISRDNAKNTVYLQMNSLKPEDTAVYYCAAAPSQVYRARFYYWGQGTQVTVSS	high polyreactivity
QVQLVESGGGLVQAGGSLRLSCAASGLIFPSYTMGWYRQAPGKDRELVAAITFSGDSTNYADSVKGRFTISRDNAKNTVYLQMNSLKPEDTAVYNCAASQVSDTTRFGYWGQGTQVTVSS	low polyreactivity
QVQLVESGGGLVQAGGSLRLSCAASGLIFPTNAMGWYRQAPGKERELVAAISSVGSTYYADSVKGRFTISRDNAKNTVYLQMNSLKPEDTAVYYCAADWTLDPSYGYYADDYWGQGTQVTVSS	low polyreactivity
QVQLVESGGGLVQAGGSLRLSCAASGLIFPVYDMGWYRQAPGKERELVAAITRSGDSTYYADSVKGRFTISRDNAKNTVYLQMNSLKPEDTAVYYCAAQPGTASYAGDGDSWGQGTQVTVSS	low polyreactivity
QVQLVESGGGLVQAGGSLRLSCAASGLIFPYYTMGWYRQAPGKEGELVAVINRGGSTSYADSVKGRFTISRDNAKNTFYLQMNSLKPEDTAVYYCAARKWRYYSHVIYDYWGQGTQVTVSS	high polyreactivity
QVQLVESGGGLVQAGGSLRLSCAASGLIFPYYVMGWYRQAPGKERELVAAISVSGGNTYYADSVKGRFTISRDNAKNTVYLQMNSLKPEDTAVYYCAADHYRGSYDYWGQGTQVTVSS	high polyreactivity
QVQLVESGGGLVQAGGSLRLSCAASGLIFPYYVMGWYRQAPGKERELVAAITWSGGRTYYADSVKGRFTISRDNAKNTVSLQMNSLKPEDTAVYYCAATYWTIDYWGQGTQVTVSS	low polyreactivity
QVQLVESGGGLVQAGGSLRLSCAASGLIFRGNDMGWYRQAPGKERELVAGINSSGSTNYADSVKGRFTISRDNAKNTVYLHMNSLKPEDTAVYYCAARAIVSFDYCGQGTQVTVSS	low polyreactivity
QVQLVESGGGLVQAGGSLRLSCAASGLIFRGYAMGWYIQAPGKERELVAAISKSGGSTYYADSVKGRFTISRDNAKNTVYLQMNSLKPEDTAVYYCNTDYDWKYFLSSQYDYWGQGTQVTVSS	high polyreactivity
